According to publication PMC4460036:

Biological target: Fibrillar-type I Horm collagen from equine tendon (equine)
Experiment: not stated; apparent constants (KDapp) of recombinant soluble GPVI for collagen; method and conditions not told

| Substance | Kd |
| --- | --- |
| GPVI-Fc (extracellular domain of human GPVI fused to the Fc domain of human Igs) (from UniProt Q9HCN6 21-267) (Fc fusion) | 5 nM |
| GPVI-His (extracellular domain of human GPVI fused to a poly-His tag) (from UniProt Q9HCN6 21-267) (domain or fragment) | 270 nM |
